# Laboratory results: article PMC9529153
# How the values were obtained:
# [1] = biological target: AbHeR K216Q (Actinobacteria bacterium IMCC26103)
# [2] = biological target: Actinobacteria bacterium IMCC26103 heliorhodopsin (AbHeR) wild type (Actinobacteria bacterium IMCC26103)
# [3] = biological target: Actinobacteria bacterium IMCC26103 heliorhodopsin (AbHeR) wild type (Actinobacteria bacterium IMCC26103); remark: listed apart in the source
# [4] = biological target: AbHeR D223N (Actinobacteria bacterium IMCC26103); experiment: ITC; AbGS injected into purified AbHeR (WT or mutant) at 25°C, MicroCal ITC200; both in buffer SD (150 mM NaCl, 50 mM Tris-HCl pH 7.0, 0.02% DDM); in the absence of light
# [5] = biological target: AbHeR E151Q (Actinobacteria bacterium IMCC26103); experiment: as above
# [6] = biological target: AbHeR K148Q (Actinobacteria bacterium IMCC26103); experiment: as above
# [7] = biological target: AbHeR K216Q (Actinobacteria bacterium IMCC26103); experiment: as above
# [8] = biological target: Actinobacteria bacterium IMCC26103 heliorhodopsin (AbHeR) wild type (Actinobacteria bacterium IMCC26103); experiment: as above
# [9] = biological target: Actinobacteria bacterium IMCC26103 heliorhodopsin (AbHeR) wild type (Actinobacteria bacterium IMCC26103); experiment: ITC; purified AbGS with AbHeR in inverted membrane vesicles (IMV) of E. coli C43 (DE3), no detergent; text: IMVs injected into AbGS, legend: AbGS added to IMVs; in the absence of light
# [10] = system: Glu105; experiment: UV-vis; conditions: Not stated for the titration. The purification buffer SD contains 150 mM NaCl., Not stated for the titration. The purified protein was in buffer SD: 150 mM NaCl, 50 mM Tris-HCl pH 7.0, 0.02% DDM. The protocol is referred to ref 8., detergent-solubilised, retinal-bound AbHeR WT. Light adaptation is not stated.
# Actinobacteria bacterium IMCC26103 heliorhodopsin (AbHeR) wild type (Actinobacteria bacterium IMCC26103), sequence (main, as listed by the source): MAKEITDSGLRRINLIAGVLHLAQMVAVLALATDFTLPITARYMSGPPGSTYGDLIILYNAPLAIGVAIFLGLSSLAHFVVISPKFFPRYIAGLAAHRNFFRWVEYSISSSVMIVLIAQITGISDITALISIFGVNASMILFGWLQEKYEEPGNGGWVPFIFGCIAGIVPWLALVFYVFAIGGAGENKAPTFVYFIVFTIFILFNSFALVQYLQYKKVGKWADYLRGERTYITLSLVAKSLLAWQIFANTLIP
"kcat/Km of AbGS (Glu, Mn2+-supported biosynthetic reaction, 37°C) with AbHeR K216Q IMV, dark; AbGS alone 5.42 [1]","kcat/Km of AbGS (Glu, Mn2+-supported biosynthetic reaction, 37°C) with AbHeR K216Q IMV, light (532 nm); AbGS alone 5.42 [1]","kcat/Km of AbGS (Glu, Mn2+-supported biosynthetic reaction, 37°C) with AbHeR WT IMV, dark; AbGS alone 5.42 [2]","kcat/Km of AbGS (Glu, Mn2+-supported biosynthetic reaction, 37°C) with AbHeR WT IMV, light (532 nm); AbGS alone 5.42 [2]","amount of product (Pi) of the AbGS biosynthetic reaction with AbHeR WT IMV at 150 min, in the absence of light, against AbHeR K216Q IMV [3]","amount of product (Pi) of the AbGS biosynthetic reaction with AbHeR WT IMV at 150 min, in the presence of light against the absence of light [3]","amount of product (Pi) of the AbGS biosynthetic reaction with AbHeR WT IMV at 150 min, in the presence of light, against AbHeR K216Q IMV [3]",Kd [4],dH [4],Kd [5],dH [5],Kd [6],dH [6],Kd [7],Kd [8],dH [8],Kd [9],Substance,pKa [10]
5.45 M⁻¹ s⁻¹,6.91 M⁻¹ s⁻¹,8.01 M⁻¹ s⁻¹,12.2 M⁻¹ s⁻¹,1.09 times,1.1 times,1.2 times,44 µM,1.14 kcal/mol,30 µM,2.36 kcal/mol,137 µM,5.31 kcal/mol,3680 µM,100 µM,2.07 kcal/mol,6.06 µM,Actinobacteria bacterium IMCC26103 glutamine synthetase (AbGS) (enzyme),–
–,–,–,–,–,–,–,–,–,–,–,–,–,–,–,–,–,Heliorhodopsin AbHeR (Actinobacteria bacterium IMCC26103),2.84 (± 1.07)
